Source: publication PMC12371506 (ACS Bio & Med Chem Au, 2025)
Residues, ends and D or L forms follow the SMILES beside them. *: point of attachment. AMC = Cc1cc(=O)oc2cc(N*)ccc12; Cbz = O=C(OCc1ccccc1)*; CH2Cl = ClC*; CH2F = FC*

T1: caspase-9 (Homo sapiens, UniProt P55211)
T1 sequence (P55211 1-315 limits assumed): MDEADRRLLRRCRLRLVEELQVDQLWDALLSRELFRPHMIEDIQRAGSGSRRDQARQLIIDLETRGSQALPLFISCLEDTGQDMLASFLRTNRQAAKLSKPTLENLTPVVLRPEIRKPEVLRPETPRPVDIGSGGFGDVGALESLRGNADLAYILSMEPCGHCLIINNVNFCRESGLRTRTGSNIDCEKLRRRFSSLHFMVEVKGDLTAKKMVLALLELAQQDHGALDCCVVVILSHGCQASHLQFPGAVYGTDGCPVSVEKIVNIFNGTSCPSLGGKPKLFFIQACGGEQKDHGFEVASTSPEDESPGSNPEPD
T1 sequence (P55211 331-416 limits assumed): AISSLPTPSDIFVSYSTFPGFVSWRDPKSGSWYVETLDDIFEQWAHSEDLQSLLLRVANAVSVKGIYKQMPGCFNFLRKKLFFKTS

T2: caspase-1 (Homo sapiens, UniProt P29466)
T2 sequence (P29466 120-297 limits assumed): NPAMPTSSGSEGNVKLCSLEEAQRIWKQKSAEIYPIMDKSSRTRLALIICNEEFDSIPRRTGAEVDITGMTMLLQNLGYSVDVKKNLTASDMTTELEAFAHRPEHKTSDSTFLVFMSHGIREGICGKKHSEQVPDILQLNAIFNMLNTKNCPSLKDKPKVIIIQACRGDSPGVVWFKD
T2 sequence (P29466 317-404 limits assumed): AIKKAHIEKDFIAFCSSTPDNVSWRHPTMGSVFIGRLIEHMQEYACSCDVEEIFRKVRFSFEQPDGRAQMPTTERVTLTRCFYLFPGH

T3: caspase-3 (Homo sapiens, UniProt P42574)
T3 sequence (P42574 29-175 limits assumed): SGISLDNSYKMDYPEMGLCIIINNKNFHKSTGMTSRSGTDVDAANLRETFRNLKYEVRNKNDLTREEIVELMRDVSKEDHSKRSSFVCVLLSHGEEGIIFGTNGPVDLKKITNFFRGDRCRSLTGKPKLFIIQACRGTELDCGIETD
T3 sequence (P42574 176-277 limits assumed): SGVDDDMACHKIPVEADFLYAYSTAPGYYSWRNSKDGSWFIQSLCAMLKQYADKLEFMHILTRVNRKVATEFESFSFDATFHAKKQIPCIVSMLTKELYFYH

T4: caspase-4 (Homo sapiens, UniProt P49662)
T4 sequence (P49662 81-270 limits assumed): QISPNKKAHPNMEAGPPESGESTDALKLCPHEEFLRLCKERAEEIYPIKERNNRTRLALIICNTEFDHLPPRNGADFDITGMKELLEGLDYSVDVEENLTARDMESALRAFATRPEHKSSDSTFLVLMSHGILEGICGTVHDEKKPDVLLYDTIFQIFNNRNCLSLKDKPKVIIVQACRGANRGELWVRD
T4 sequence (P49662 290-377 limits assumed): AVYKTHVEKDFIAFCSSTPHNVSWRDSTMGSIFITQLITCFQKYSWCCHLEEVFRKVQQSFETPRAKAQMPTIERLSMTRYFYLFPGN

T5: caspase-6 (Homo sapiens, UniProt P55212)
T5 sequence (P55212 24-179 limits assumed): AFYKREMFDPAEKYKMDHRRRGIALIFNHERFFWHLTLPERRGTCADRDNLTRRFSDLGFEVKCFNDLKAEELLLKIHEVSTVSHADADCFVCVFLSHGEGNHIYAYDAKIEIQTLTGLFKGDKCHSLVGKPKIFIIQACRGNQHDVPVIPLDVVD
T5 sequence (P55212 194-293 limits assumed): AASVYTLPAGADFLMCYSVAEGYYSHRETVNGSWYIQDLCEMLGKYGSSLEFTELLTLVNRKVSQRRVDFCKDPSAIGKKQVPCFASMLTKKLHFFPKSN

T6: caspase-7 (Homo sapiens, UniProt P55210)
T6 sequence (P55210 24-198 limits assumed): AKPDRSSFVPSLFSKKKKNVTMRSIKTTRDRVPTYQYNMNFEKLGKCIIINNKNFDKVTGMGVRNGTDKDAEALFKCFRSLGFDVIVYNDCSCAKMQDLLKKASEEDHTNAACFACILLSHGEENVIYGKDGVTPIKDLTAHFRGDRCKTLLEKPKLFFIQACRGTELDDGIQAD
T6 sequence (P55210 207-303 limits assumed): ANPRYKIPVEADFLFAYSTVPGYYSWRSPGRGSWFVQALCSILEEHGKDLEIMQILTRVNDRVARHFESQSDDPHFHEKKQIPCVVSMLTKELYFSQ

T7: caspase-10 (Homo sapiens, UniProt Q92851)
T7 sequence (Q92851 220-415 limits assumed): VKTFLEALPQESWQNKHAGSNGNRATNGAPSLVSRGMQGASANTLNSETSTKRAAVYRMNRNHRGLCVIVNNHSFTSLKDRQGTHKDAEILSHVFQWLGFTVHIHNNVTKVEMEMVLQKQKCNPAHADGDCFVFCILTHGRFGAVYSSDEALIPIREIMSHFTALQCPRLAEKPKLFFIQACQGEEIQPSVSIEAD
T7 sequence (Q92851 416-521 limits assumed): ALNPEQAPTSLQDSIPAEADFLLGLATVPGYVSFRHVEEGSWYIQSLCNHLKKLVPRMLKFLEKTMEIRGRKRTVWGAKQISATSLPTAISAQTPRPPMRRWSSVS

T8: caspase-9 (full-length) (Homo sapiens, UniProt P55211)
T8 sequence (P55211 1-315 limits assumed): T1 sequence (P55211 1-315 limits assumed)
T8 sequence (P55211 331-416 limits assumed): T1 sequence (P55211 331-416 limits assumed)

T9: caspase-5 (Homo sapiens, UniProt P51878)
T9 sequence (P51878 137-327 limits assumed): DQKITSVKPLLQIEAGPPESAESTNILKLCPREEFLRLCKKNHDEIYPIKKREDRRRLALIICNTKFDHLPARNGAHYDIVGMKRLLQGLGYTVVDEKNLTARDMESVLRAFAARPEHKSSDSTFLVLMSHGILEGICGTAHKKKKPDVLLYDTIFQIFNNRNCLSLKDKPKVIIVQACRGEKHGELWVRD
T9 sequence (P51878 347-434 limits assumed): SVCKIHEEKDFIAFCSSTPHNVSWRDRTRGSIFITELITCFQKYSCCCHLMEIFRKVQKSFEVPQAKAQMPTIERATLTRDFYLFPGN

T10: caspase-11 (Mus musculus, UniProt P70343)
T10 sequence (P70343 81-266 limits assumed): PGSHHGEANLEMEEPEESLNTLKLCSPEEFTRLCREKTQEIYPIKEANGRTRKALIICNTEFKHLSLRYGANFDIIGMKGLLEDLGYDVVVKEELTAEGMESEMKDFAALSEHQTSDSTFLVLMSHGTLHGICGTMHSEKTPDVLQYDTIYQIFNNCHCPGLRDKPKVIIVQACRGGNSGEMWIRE
T10 sequence (P70343 286-373 limits assumed): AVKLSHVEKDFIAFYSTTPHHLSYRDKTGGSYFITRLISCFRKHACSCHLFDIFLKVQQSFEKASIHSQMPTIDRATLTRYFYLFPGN

B1: N-acetyl-Leu-Glu-Ser-Asp-chloromethylketone (peptide)
peptide: Ac-LESD-CH2Cl
SMILES: CC(=O)N[C@@H](CC(C)C)C(=O)N[C@@H](CCC(=O)O)C(=O)N[C@@H](CO)C(=O)N[C@@H](CC(=O)O)C(=O)CCl

Columns and labels:
[1] = molecular target: T1, caspase-9; test: In vitro inhibition assay, caspase-9; assay type: biochemical
[2] = tested on: HCC1806 triple-negative breast cancer cells; test: TNF-α-induced extrinsic apoptosis in HCC1806 cells; settings: 10 μM inhibitor 30 min, then TNF-α; early time points (2–6 h)
[3] = tested on: THP1 monocytes; test: TRAIL-induced extrinsic apoptosis in THP1 monocytes; assay type: cell-based, human; settings: 25 μM inhibitor
[4] = molecular target: T2, caspase-1; test: In vitro substrate kinetics, caspase-1; assay type: biochemical; settings: caspase-1, 0.25 activity units/μL
[5] = molecular target: T3, caspase-3; test: In vitro substrate kinetics, caspase-3; assay type: biochemical; settings: caspase-3, 0.25 activity units/μL
[6] = molecular target: T4, caspase-4; test: In vitro substrate kinetics, caspase-4; assay type: biochemical; settings: caspase-4, 0.25 activity units/μL
[7] = molecular target: T5, caspase-6; test: In vitro substrate kinetics, caspase-6; assay type: biochemical; settings: caspase-6, 0.25 activity units/μL
[8] = molecular target: T6, caspase-7; test: In vitro substrate kinetics, caspase-7; assay type: biochemical; settings: caspase-7, 0.25 activity units/μL
[9] = molecular target: caspase-8 (Homo sapiens, UniProt Q14790); test: In vitro substrate kinetics, caspase-8; assay type: biochemical; settings: for K M / Relative k cat/K M / V max: caspase-8, 0.25 activity units/μL
Chain of caspase-8 (Q14790 217-374 limits assumed): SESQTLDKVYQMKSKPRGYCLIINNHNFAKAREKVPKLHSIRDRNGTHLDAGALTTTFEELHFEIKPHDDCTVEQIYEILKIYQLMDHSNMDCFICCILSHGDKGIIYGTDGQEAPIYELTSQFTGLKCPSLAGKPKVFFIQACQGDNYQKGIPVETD
Chain of caspase-8 (Q14790 385-479 limits assumed): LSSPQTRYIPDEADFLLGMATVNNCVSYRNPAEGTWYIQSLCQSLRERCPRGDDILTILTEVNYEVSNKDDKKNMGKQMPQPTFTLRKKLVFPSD

[10] = molecular target: T7, caspase-10; test: In vitro substrate kinetics, caspase-10; assay type: biochemical; settings: for K M / Relative k cat/K M / V max: caspase-10, 0.25 activity units/μL
[11] = molecular target: T8, caspase-9 (full-length); test: In vitro substrate kinetics, caspase-9; settings: caspase-9, 1 activity unit/μL, different preparation
[12] = molecular target: T9, caspase-5; test: In vitro substrate kinetics, caspase-5; assay type: biochemical
[13] = molecular target: T10, caspase-11; test: In vitro substrate kinetics, caspase-11; assay type: biochemical
[14] = molecular target: Caspase-9 (full-length) (human), (recombinant) (human) (UniProt P55211)
[15] = caspase-5, 0.25 activity units/μL
[16] = mouse caspase-11, 0.25 activity units/μL

Row | Molecule | IC50 [1] [nM] | K M [4] [µM] | Relative k cat/K M [4] | V max [4] [RFU/min] | Relative k cat/K M [5] | K M [6] [µM] | Relative k cat/K M [6] | V max [6] [RFU/min] | Relative k cat/K M [7] | Relative k cat/K M [8] | K M [9] [µM] | Relative k cat/K M [9] | V max [9] [RFU/min] | K M [10] [µM] | Relative k cat/K M [10] | V max [10] [RFU/min] | Relative k cat/K M [11] | also measured
1 | CCO[C@@H]1OC(=O)C[C@@H]1NC(=O)[C@@H]1CCCN1C(=O)[C@@H](NC(=O)c1ccc(N)c(Cl)c1)C(C)(C)C [VX-765, (S)-1-((S)-2-{[1-(4-amino-3-chloro-phenyl)-methanoyl]-amino}-3,3-dimethyl-butanoyl)-pyrrolidine-2-carboxylic acid ((2R,3S)-2-ethoxy-5-oxo-tetrahydro-furan-3-yl)-amide] | 540 ± 260 | – | – | – | – | – | – | – | – | – | – | – | – | – | – | – | – | –
2 | CC[C@H](C)[C@H](NC(=O)OCc1ccccc1)C(=O)N[C@@H](CCC(=O)OC)C(=O)N[C@H](C(=O)N[C@@H](CC(=O)OC)C(=O)CF)[C@@H](C)O [zIETD-FMK] (Cbz-IE(OMe)TD(OMe)-CH2F) | 1470 ± 620 | – | – | – | – | – | – | – | – | – | – | – | – | – | – | – | – | caspases-3/7 activation (caspase-3/7 dye) [2]: inhibition of caspases-3/7 activation
3 | COC(=O)CC[C@H](NC(=O)[C@H](CC(C)C)NC(=O)OCc1ccccc1)C(=O)N[C@@H](Cc1c[nH]cn1)C(=O)N[C@@H](CC(=O)OC)C(=O)CF [zLEHD-FMK] (Cbz-LE(OMe)HD(OMe)-CH2F) | 800 ± 320 | – | – | – | – | – | – | – | – | – | – | – | – | – | – | – | – | relative potency at inhibiting caspases-3/7 activity (caspases-3/7 dye) [3]: more potent than zIETD-FMK
4 | Ac-DEVD-AMC [reference compound] | – | 47.5 ± 30.8 | 1.41 ± 0.43 | 44.68 ± 15.51 | 482 ± 76.5 | 702 ± 76.3 | 1.27 ± 0.18 | 862.73 ± 31.55 | 13.3 ± 2.24 | 561 ± 81.2 | 0.75 ± 0.12 | 310 ± 60.4 | 218.27 ± 2.74 | 70.3 ± 14.6 | 7.20 ± 1.02 | 476.26 ± 38.71 | did not cleave | K M [5]: 2.07 ± 0.36 µM; V max [5]: 940.88 ± 31.57 RFU/min; K M [7]: 35.3 ± 5.12 µM; V max [7]: 455.67 ± 64.18 RFU/min; K M [8]: 2.36 ± 0.36 µM; V max [8]: 1266.91 ± 38.79 RFU/min
5 | N-acetyl-Leu-Glu-Ser-Asp-aminomethylcoumarin (Ac-LESD-{AMC}; SMILES CC(=O)N[C@@H](CC(C)C)C(=O)N[C@@H](CCC(=O)O)C(=O)N[C@@H](CO)C(=O)N[C@@H](CC(=O)O)C(=O)Nc1ccc2c(C)cc(=O)oc2c1) [Ac-LESD-AMC] | – | 93.9 ± 6.26 | 5.01 ± 0.41 | 465.55 ± 10.25 | did not detect processing | 1867 ± 388 | 1.44 ± 0.18 | 2546.06 ± 156.63 | did not detect processing | did not detect processing | 9.98 ± 0.37 | 59.2 ± 3.26 | 590.08 ± 30.37 | 87.9 ± 5.38 | 10.4 ± 1.30 | 898.63 ± 57.69 | 0.15 | catalytic efficiency within x-fold of preferred substrate Ac-WEHD-AMC ([12]; caspase-5): ≤ 5 fold; K M [12, 15]: 154 ± 13.5 µM; Relative k cat/K M [12, 15]: 4.65 ± 0.43; V max [12, 15]: 703.19 ± 24.07 RFU/min; catalytic efficiency within x-fold of preferred substrate Ac-LEHD-AMC ([9]; caspase-8): ≤ 3 fold; catalytic efficiency within x-fold of preferred substrate Ac-LEHD-AMC ([10]; caspase-10): ≤ 3 fold; K M [13, 16]: 503 ± 58.4 µM; Relative k cat/K M [13, 16]: 0.42 ± 0.02; V max [13, 16]: 211.01 ± 15.01 RFU/min; fold slower cleavage by caspase-11 than by caspase-8 ([13]; relative k cat/K M): ~100 fold; K M [11]: 1513.83 ± 441.20 µM; V max [11]: 208.50 ± 45.00 RFU/min; Relative k cat/K M ([11]; listed as LESD-AMC): 0.15 ± 0.02
6 | B1 | – | – | – | – | – | – | – | – | – | – | – | – | – | – | – | – | – | IC50 of inhibition of caspase activity (rate of cleavage of 200 μM Ac-LEHD-AMC) [14]: 7450 nM
